Results as given in PMC6921899, “AtDAT1 Is a Key Enzyme of D-Amino Acid Stimulated Ethylene Production in Arabidopsis thaliana” (Frontiers in Plant Science, 2019).

Substrate: CSCC[C@@H](N)C(=O)O
Assay: D-Ala formation by UPLC-MS after derivatization; Hofstee linearization
Format: biochemical, Arabidopsis thaliana
Details: pyruvate 50 mM as amino acceptor, standard assay: potassium phosphate 100 mM pH 8, PLP 50 µM, 37 °C

B1: AtDAT1(Col-0) (Arabidopsis thaliana) (protein)
chain: MAGLSLEFTVNTWNLRSLSQVPCPLRHGFRFPRRLTRRRTILMCSDSSSQSWNVPVLSSYEVGERLKLARGGQQFLAMYSSVVDGITTDPAAMVLPLDDHMVHRGHGVFDTALIINGYLYELDQHLDRILRSASMAKIPLPFDRETIKRILIQTVSVSGCRDGSLRYWLSAGPGDFLLSPSQCLKPTLYAIVIKTNFAINPIGVKVVTSSIPIKPPEFATVKSVNYLPNVLSQMEAEAKGAYAGIWVCKDGFIAEGPNMNVAFVVNGGKELVMPRFDNVLSGCTAKRTLTLAEQLVSKGILKTVKVMDVTVEDGKKADEMMLIGSGIPIRPVIQWDEEFIGEGKEGPIAKALLDLLLEDMRSGPPSVRVLVPY
notes: N-terminal GST tag and C-terminal His tag (pGEX-2TM-GW); E. coli BL21(DE3) RIL; Ni-NTA purified
Question: For B1, which Km is on record?
Answer: 17.4 mM
